# Reference: FireProtDB (doi:10.1016/j.bpc.2008.08.008)
# Several values for one entry are separate records, joined by “and”; a condition that tells them apart may be missing. Equal entries are not always repeated.
# Details: Capra hircus, pH 6, Cacodylate 0.03 M, Potassium chloride 0.1 M, reversible: Yes; for denaturant midpoint (higher = more stable) / unfolding free energy: 25 °C, GdnHCl
# Chain of wild type, Q3LUG9 (Q3LUG9 entry or part of it): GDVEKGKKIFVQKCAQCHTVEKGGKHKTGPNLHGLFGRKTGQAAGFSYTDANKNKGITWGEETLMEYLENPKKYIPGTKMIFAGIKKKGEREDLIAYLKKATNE
substance,measurement,setting,value
"wild type, Q3LUG9",denaturant midpoint (higher = more stable),Absorbance,2.7 M and 2.6 M
same,unfolding free energy,Absorbance,9.49 kcal/mol and 9.39 kcal/mol
same,denaturant midpoint (higher = more stable),CD,2.5 M and 2.6 M
same,unfolding free energy,CD,9.3 kcal/mol and 9.58 kcal/mol
same,heat capacity change of unfolding,"Thermal, CD",1.29 kcal/mol/K
